# Results taken from patent US8236527B2, “Recombinant production of authentic human proteins using human cell expression systems” (Humanzyme Limited, priority 2008, dated 2012).
# B1: authentic human IL-23: IL-23 from engineered human HEK293 cells, disulfide-linked heterodimer of 55 kD (protein, UniProt Q9NPF7 20-189; P29460 23-328, looked up)
# Interleukin-23 subunit alpha: RAVPGGSSPAWTQCQQLSQKLCTLAWSAHPLVGHMDLREEGDEETTNDVPHIQCGDGCDPQGLRDNSQFCLQRIHQGLIFYEKLLGSDIFTGEPSLLPDSPVGQLHASLLGLSQLLQPEGHHWETQQIPSLSPSQPWQRLLLRFKILRSLQAFVAVAARVFAHGAATLSP
# Interleukin-12 subunit beta: IWELKKDVYVVELDWYPDAPGEMVVLTCDTPEEDGITWTLDQSSEVLGSGKTLTIQVKEFGDAGQYTCHKGGEVLSHSLLLLHKKEDGIWSTDILKDQKEPKNKTFLRCEAKNYSGRFTCWWLTTISTDLTFSVKSSRGSSDPQGVTCGAATLSAERVRGDNKEYEYSVECQEDSACPAAEESLPIEVMVDAVHKLKYENYTSSFFIRDIIKPDPPKNLQLKPLKNSRQVEVSWEYPDTWSTPHSYFSLTFCVQVQGKSKREKKDRVFTDKTSATVICRKNASISVRAQDRYYSSSWSEWASVPCS
# What was measured:
# Format in all cases: cell-based
# human CD4+ T cells = assay: IL-23 activity: IL-17 secretion from human CD4+ T cells (ELISA)
# Protocol: (A) IL-23 activities determined by the dose-dependent secretion of IL-17 from mouse splenocytes activated with 10 ng/ml PMA. (B) IL-23 activities determined by the dose-dependent secretion of IL-17 from human CD4+ T cells stimulated with […] plate bound anti-CD3 and […] soluble anti-CD28 in the presence of Th17 polarizing cytokines.
# FIG. 22: Efficient differentiation of Th17 cells with authentic cytokines expressed in human cells. Whole CD4+ T cells isolated from a healthy donor were stimulated with 2 μg/mL plate bound anti-CD3 and 1 μg/mL soluble anti-CD28 in the presence of Th17 polarizing cytokines, including a titration of IL-23. After 5 days, supernatants were harvested for measurement of IL-17 by ELISA. See (A)-(G). FIG. 22 (H) depicts flow cytometry analysis on Human Th17 Differentiation by Authentic human TGF-β1. See Example 17 below.
# IL-17-producing CD4+ T cells (Th17 cells) have been identified as a unique subset of T helper cells that develop along a pathway that is distinct from the Th1 and Th2-cell differentiation pathways. This finding has provided exciting new insights into immunoregulation, host defense and the pathogenesis of autoimmune diseases. Recently it has been shown that TGF-β1, […], IL-6 and IL-23 are important in driving human Th17 differentiation (Chen & O'Shea (2008) Cytokines 41:71). […] The activities were further assayed with human CD4+ cells which were isolated from a healthy donor and stimulated with 10 μg/ml plate bound anti-CD3 and 10 μg/ml soluble anti-CD28 in the presence of Th17 polarizing cytokines. After 5 days supernatants were harvested for measurement of IL-17 by ELISA.
# [1] = system: whole CD4+ cells from a healthy donor; assay: Th17 polarizing cytokines: IL-17 secretion from human CD4+ cells (ELISA); settings: compared with cytokines from insect cell or bacterial expression system, 5 days
# Excerpt: IL-17-producing CD4+ T cells (Th-17 cells) have been identified as a unique subset of Th cells that develop along a pathway that is distinct from the Th1, and Th2-cell differentiation pathways. This finding has provided exciting new insights into immunoregulation, host defense and the pathogenesis of autoimmune diseases. Recently it has been shown that IL1β, IL6 and IL23 are important in driving human Th17 differentiation. However, TGF-β1, which is important for the differentiation of murine Th17 cells, is reported to be not required, and even inhibits human Th17 differentiation (McGeachy & Cua (2008) Immunity 28:445, Chen & O'Shea (2008) Cytokines 41:71). In this study, whole […] cells isolated from a healthy donor were stimulated with 10 μg/mL plate bound anti-CD3 and 10 μg/ml soluble anti-CD28 in the presence of Th17 polarizing cytokines from the inventive human cell expression system and from an insect cell or bacterial expression system. After 5 days supernatants were harvested for measurement of IL-17 by ELISA.
# mouse splenocytes = assay: IL-23 activity: dose-dependent secretion of IL-17 from mouse splenocytes activated with PMA; settings: 10 ng/ml PMA
molecule,measurement,setting,value
B1,fold more potent than the cytokine produced from insect cells (FIG. 21 heading),human CD4+ T cells; assay not specified in the heading,500 fold
same,concentration at which maximum induction of IL-17 secretion was achieved,"human CD4+ T cells; human CD4+ cells, 5 days",0.1 ng/mL
same,fold more potent for inducing IL-17 secretion than insect cell IL-23,"human CD4+ T cells; human CD4+ cells, anti-CD3 and anti-CD28, Th17 polarizing cytokines, 5 days",100 fold
same,induction of IL-17 secretion,[1],significantly more effective
same,"activity relative to insect cell IL-23, IL-17 secretion from mouse splenocytes",mouse splenocytes,ten fold more active
